Measurements from IntAct's records for PubMed 30487161.

Biological target: egln1_human EGLN1 (UniProt Q9GZT9)
Sequence (Q9GZT9 whole entry, looked up): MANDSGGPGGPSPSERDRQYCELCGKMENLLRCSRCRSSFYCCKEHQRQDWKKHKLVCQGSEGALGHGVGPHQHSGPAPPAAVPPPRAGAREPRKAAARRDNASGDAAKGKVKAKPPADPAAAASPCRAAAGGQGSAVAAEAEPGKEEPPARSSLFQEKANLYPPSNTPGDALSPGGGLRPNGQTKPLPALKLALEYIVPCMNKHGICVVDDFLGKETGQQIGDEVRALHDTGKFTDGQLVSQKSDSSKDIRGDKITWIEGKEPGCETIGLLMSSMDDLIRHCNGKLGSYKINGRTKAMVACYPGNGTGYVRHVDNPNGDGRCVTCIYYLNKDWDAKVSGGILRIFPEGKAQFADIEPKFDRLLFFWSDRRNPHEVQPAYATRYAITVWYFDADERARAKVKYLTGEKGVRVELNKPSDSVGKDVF

Sequence of Endothelial PAS domain-containing protein 1 (Homo sapiens), Q99814 G724W (Q99814 whole entry G724W, the tested form may be a part): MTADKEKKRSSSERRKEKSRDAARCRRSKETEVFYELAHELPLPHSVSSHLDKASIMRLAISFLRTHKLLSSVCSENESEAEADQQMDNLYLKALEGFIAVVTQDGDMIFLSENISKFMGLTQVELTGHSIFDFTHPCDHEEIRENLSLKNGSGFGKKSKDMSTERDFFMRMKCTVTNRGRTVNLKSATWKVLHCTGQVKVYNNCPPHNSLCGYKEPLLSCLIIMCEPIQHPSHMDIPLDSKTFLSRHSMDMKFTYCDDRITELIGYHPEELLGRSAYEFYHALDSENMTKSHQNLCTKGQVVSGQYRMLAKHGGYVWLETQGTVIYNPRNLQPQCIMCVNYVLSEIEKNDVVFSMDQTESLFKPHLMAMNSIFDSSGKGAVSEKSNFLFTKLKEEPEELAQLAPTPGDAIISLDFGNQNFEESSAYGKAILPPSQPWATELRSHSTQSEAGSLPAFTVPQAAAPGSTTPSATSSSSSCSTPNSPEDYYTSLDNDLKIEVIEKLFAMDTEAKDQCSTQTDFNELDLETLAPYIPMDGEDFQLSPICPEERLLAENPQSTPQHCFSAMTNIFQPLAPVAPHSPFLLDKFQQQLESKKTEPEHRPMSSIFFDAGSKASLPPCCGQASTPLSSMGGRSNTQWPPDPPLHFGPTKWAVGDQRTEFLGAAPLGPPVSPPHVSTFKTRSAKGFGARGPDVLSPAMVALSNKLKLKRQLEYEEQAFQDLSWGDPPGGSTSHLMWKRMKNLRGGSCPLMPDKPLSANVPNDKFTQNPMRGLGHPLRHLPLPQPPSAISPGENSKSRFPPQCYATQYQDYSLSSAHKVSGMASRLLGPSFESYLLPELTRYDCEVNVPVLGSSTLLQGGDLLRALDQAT
Sequence of Endothelial PAS domain-containing protein 1 (Homo sapiens), Q99814 N203H (Q99814 whole entry N203H, the tested form may be a part): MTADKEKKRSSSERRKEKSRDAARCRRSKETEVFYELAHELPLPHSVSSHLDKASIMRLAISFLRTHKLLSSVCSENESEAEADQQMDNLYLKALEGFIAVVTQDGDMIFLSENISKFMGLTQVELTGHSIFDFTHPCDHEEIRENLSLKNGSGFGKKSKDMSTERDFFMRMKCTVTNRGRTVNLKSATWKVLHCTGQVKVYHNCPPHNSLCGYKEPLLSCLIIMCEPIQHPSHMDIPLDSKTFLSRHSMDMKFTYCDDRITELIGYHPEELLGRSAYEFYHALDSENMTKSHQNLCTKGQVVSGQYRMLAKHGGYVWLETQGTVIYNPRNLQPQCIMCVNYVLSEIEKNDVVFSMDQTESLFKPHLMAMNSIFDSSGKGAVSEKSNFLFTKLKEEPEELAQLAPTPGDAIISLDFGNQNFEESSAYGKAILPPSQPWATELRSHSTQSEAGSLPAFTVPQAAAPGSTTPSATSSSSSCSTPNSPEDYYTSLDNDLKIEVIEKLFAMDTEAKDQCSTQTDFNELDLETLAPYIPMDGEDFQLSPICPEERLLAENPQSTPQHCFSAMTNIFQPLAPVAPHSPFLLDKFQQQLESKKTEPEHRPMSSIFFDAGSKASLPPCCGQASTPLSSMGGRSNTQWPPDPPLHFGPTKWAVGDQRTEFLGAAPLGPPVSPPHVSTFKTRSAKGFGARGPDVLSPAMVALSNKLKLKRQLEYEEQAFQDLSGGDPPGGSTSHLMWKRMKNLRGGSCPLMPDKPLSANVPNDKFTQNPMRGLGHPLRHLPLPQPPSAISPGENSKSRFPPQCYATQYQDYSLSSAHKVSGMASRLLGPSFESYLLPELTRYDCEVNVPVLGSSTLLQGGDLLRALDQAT

Substance	effect of a mutation on the interaction
Endothelial PAS domain-containing protein 1 (Homo sapiens), Q99814 G724W	with no effect
Endothelial PAS domain-containing protein 1 (Homo sapiens), Q99814 N203H	increasing interaction strength
